Measured values: PMC7145654
Like-named read-outs stand apart in the source and are kept apart here.

T1: RadD (Escherichia coli, UniProt P33919 1-586)
T1 sequence: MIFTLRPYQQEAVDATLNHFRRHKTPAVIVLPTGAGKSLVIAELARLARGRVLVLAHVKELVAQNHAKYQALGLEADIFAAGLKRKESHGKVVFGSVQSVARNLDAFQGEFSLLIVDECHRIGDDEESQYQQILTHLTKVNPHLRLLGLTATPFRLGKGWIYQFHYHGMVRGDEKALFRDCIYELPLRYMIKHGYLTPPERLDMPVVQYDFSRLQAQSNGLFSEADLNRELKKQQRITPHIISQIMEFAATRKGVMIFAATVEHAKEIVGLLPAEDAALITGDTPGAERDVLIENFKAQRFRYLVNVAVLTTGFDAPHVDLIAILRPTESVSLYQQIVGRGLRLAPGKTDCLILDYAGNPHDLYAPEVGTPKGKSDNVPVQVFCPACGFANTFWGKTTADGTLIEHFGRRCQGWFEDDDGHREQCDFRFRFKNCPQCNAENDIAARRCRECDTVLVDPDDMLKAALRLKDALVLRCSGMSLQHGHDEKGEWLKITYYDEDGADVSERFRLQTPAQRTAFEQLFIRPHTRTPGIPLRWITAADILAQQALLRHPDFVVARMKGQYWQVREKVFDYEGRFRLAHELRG

B1: three-way junction (OH1/OH4/3W) (structured_DNA)
DNA 1: CCCGTGATCACCAATGCAGATTGACGAACCTTTGCCCACGT
DNA 2: GGCAGTAGGCCTAGCATGACAATCTGCATTGGTGATCACGG
DNA 3: GACGTGGGCAAAGGTTCGTCGTCATGCTAGGCCTACTGC
B2: Holliday junction (OH1-OH4) (structured_DNA)
DNA 1: B1 DNA 1
DNA 2: GACGTGGGCAAAGGTTCGTCAATGGACTGACAGCTGCATGG
DNA 3: GCCATCCAGCTGTCAGTCCATTGTCATGCTAGGCCTACTGC
DNA 4: B1 DNA 2
B3: linear duplex (ZJRds1/ZJRds2) (dsDNA)
DNA 1: GCAATTAAGCTCTAAGCCATCCGCAAAAATGACCTCTTATCAAAAGGA
DNA 2: TCCTTTTGATAAGAGGTCATTTTTGCGGATGGCTAAGAGCTTAATTGC

Key:
RadD [1] = target: T1, RadD; assay: fluorescence anisotropy
RadD [2] = target: T1, RadD; assay: fluorescence anisotropy; remark: listed apart in the source
Uup [3] = target: T2, Uup (Escherichia coli, UniProt P43672 1-635); assay: EMSA
Uup [4] = target: T2, Uup; assay: EMSA; remark: listed apart in the source

T2 sequence (P43672 whole entry): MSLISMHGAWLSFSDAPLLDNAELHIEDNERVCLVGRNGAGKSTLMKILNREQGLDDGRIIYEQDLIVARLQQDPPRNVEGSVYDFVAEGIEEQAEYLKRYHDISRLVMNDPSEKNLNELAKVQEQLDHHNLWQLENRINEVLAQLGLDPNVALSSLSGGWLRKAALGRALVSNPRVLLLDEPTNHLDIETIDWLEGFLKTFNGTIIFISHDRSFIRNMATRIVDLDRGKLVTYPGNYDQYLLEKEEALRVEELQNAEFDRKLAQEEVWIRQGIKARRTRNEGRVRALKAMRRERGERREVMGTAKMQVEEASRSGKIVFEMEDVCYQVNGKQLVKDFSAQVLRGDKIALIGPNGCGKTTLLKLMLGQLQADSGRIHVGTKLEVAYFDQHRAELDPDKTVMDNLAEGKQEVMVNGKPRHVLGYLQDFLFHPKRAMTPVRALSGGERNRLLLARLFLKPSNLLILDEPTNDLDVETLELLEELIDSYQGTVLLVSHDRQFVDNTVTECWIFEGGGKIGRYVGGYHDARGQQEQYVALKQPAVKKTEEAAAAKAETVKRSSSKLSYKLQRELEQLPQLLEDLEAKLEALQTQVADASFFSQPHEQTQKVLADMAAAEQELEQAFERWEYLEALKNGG

| Binder | binding result (RadD [1]) | binding result (RadD [2]) | binding result (Uup [3]) | binding result (Uup [4]) |
| --- | --- | --- | --- | --- |
| B1 | binds |  |  |  |
| B2 |  | no binding | binds |  |
| B3 |  | no binding |  | no binding |
